In the nanobody polyreactivity screen of Harvey et al. (2022):

Experiment: yeast display, Sf9 membrane polyspecificity reagent, FACS + sequencing; frameworks hold sequencing errors
Method in brief: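 Galactose-induced (36–48 hours) yeast carrying a synthetic nanobody display library were exposed to 10% biotinylated, detergent-solubilized Sf9 membrane reagent at 4 °C for 1 hour. FACS followed streptavidin microbead enrichment, using low and high (top ~1%) gates for expression (anti-HA) and reagent binding (streptavidin). Colony PCR, MiSeq 2 × 250 sequencing and CDR-length filtering followed. Labels for polyreactivity reflect the gate of origin.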

Sequence	polyreactivity (PSR sort gate)
QVQLVESGGGLVQAGGSLRLSCAASGGTLQGNAMGWYRQAPGKERELVAAISSRGGRTYYADSVKGRFTISRDNANNTVYLQMNSLKPEDTAVYYCAAVQKGDSTLLRTKGGYWGQGTQVTVSS	high polyreactivity
QVQLVESGGGLVQAGGSLRLSCAASGGTLRRYAMGWYRQAPGKERELVAGITSGGSTDYADSVKGRFTISRDNAKNTVYLQMNSLKPEDTAVYYCAALVYRPTYGYIFDYWGQGTQVTVSS	high polyreactivity
QVQLVESGGGLVQAGGSLRLSCAASGGTLRYYVMGWYRQAPGKDRELVAAISWAGDSTYYADSVKGRFTISRDNAKNTVYLQMNSLKPEDTAVYYCAATYYLTYYSGQANHGYDYWGQGTQVTVSS	low polyreactivity
QVQLVESGGGLVQAGGSLRLSCAASGGTLYYNAMGWYRQAPGKERELVAAISGRGGRTYYADSVKGRFTISRDNAKNTVYLQMNSLKPEDTAVYYFARVTNDHYDYWGQGTQVTVSS	high polyreactivity
QVQLVESGGGLVQAGGSLRLSCAASGGTSYAYTMGWYRQAPGKERELVAAISGSTGSTYYADSVKGRFTISRDNAKNTVYLQMNSLKPEDTAVYYCALLVGHNYWGQGTQVTVSS	low polyreactivity
QVQLVESGGGLVQAGGSLRLSCAASGGWYRQAPGKERELVAAISWRDSSTYYADSVKGRFTISRDNAKNTVYLQMNSLKPEDTAVYYCAVRAYPWPEYYYWGQGTQVTVSS	low polyreactivity
QVQLVESGGGLVQAGGSLRLSCAASGHIFANYAMGWYRQAPGKERELVAAIRWSASRTYYADSVKGRFTISRDYAKNTVFLQLNSLKPEDTAVYYCAATIYTFWAYYYDYWGQGTQVTVSS	high polyreactivity
QVQLVESGGGLVQAGGSLRLSCAASGHIFFYYTMGWYRQAPGKERELVAGITIGGSTNYADSVKGRFTISRDNAKNTVYLEMNSLKPEDTAVYYCNVVKYVFFYSYWEYYYWGQGTQVTVSS	low polyreactivity
QVQLVESGGGLVQAGGSLRLSCAASGHIFFYYTMGWYSPAPGKERELVAGITIGGSTNYADSVKGRFTISRDNAKNTVYLQMNSLKPEDTAVYYCNVVKYVYIYSYWEYYYWGQGTQVNVSS	low polyreactivity
QVQLVESGGGLVQAGGSLRLSCAASGHIFGGNAMGWYRQAPGKEMELVATISSGGSTHYADSVKGRFTISRDNAKNTVYLQMHSLKPEDTAVYYCAARRSYRATAYKYDYWGQGTHVTVSS	low polyreactivity
QVQLVESGGGLVQAGGSLRLSCAASGHIFSRYAMGWFRQAPGKERDLVATITNRGGSTYYADSVKGRFTISRDNAKNSVYLQMNSLKPEDTAVYYCARRTKSYVSHPLDYWGQGTQVTVSS	high polyreactivity
QVQLVESGGGLVQAGGSLRLSCAASGHTFRKYAMGWYRQAPGKERELVASITWSDGITYYADSVKGRFTISRDNAKNTVYLQMNSLKPEDTAVYYCATDLVQSEYDYWGQGTQVTVSS	low polyreactivity
QVQLVESGGGLVQAGGSLRLSCAASGHTFSSYAMGWYRQAPGKERELVAAISVSATRTYYADSVKGRFTISRDNAKNTVYLQMNSLKPEDTAVYYCAARPVQFTYGYWGQGTQVTVSS	high polyreactivity
QVQLVESGGGLVQAGGSLRLSCAASGIFEWNAMGWYRQAPRTERELVAAISNSGGSTYYADSVKGRFTISRDNAKNTVYLQMNSLKPEDNAVYYCAARSKTPAWWYWNSYYIRDYWGQATQVTVSS	high polyreactivity
QVQLVESGGGLVQAGGSLRLSCAASGIFGWYAMGWYRQARGKEREFVATINWSGGRTYYADSVKGRFTISRDNAKNTVYVQMNSLKPEDTAVYYCAPENYASQYDYWGQGTQVTVSS	low polyreactivity
QVQLVESGGGLVQAGGSLRLSCAASGIFPYNAMGWYRQAPGKERELVAAITWSDGSTYYADSVKGRFTISRDNAKNTVYLQMNSLKPEDTAVYYCNTYRNPAEDYWGQGTQVTVSS	low polyreactivity
QVQLVESGGGLVQAGGSLRLSCAASGIFRLNAMGWYRQAPGKERELVAAISWSGGSTRYADSVKGRFTISRDNAKNTVYLQMNSLKPEDTAVYYCAKKLRGWHTIITDYDYWGLGTQVTVSS	low polyreactivity
